From the supplement of paper PMC12855868

B1: library; numbered along this chain (parent)
chain: MAAAGGARLLRAASAVLGGPAGRWLHHAGSRAGSSGLLRNRGPGGSAEASRSLSVSARARSSSEDKITVHFINRDGETLTTKGKVGDSLLDVVVENNLDIDGFGACEGTLACSTCHLIFEDHIYEKLDAITDEENDMLDLAYGLTDRSRLGCQICLTKSMDNMTVRVPETVADARQSIDVGKTS

Variants of: B1
Experiment: scaled log2 fold change in cell abundance, elesclomol vs control (0 = silent mean, 1 = nonsense mean) (scaled log2 ratio); higher = higher viability under elesclomol (loss of FDX1 cuproptosis function)
Conditions: glucose 10 mM
Protocol: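 Deep mutational scan of full-length human FDX1: a pooled saturation-mutagenesis ORF library (every residue 2-184 mutated to all 19 amino acids plus stop, and silent codons where available) was expressed by lentivirus in FDX1-knockout ABC1 (14 days) or HEK293T (11 days) cells grown with elesclomol (ES) or DMSO control. Variant abundance came from ORF sequencing. The log2 fold change (ES vs control, mean of duplicates) was centred on the silent-variant mean (0) and scaled to the nonsense-variant mean (1). Higher values mean greater viability under ES, i.e. loss of FDX1 function in cuproptosis.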

[1] = with ABC1 FDX1 KO, elesclomol 5 nM, 14 days
[2] = with HEK293T FDX1 KO, elesclomol 40 nM, 11 days
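Further: variant abundance is its share of total variant reads in each endpoint sample, from next-generation sequencing of the integrated ORF PCR-amplified out of genomic DNA.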

Variant	scaled log2 fold change [1]	scaled log2 fold change [2]
G33N	0.0785	0.48
G33E	0.197	-0.759
G33V	0.127	0.731
G33C	-0.0719	0.194
G33F	0.0743	0.637
G33L	-0.121	-1.21
G33H	0.23	0.469
G33M	0.0509	-0.453
G33T	0.154	0.176
G33W	-0.0437	0.197
G33P	-0.0501	0.139
G33R	-0.26	-0.362
G33A	0.0776	0.0796
G33K	0.0454	0.247
A32E	0.295	-0.00588
A32G	0.242	-0.0456
A32F	0.304	0.033
A32T	-0.266	
A32Y	0.0969	0.822
A32V	-0.114	
A32P	0.626	
A32R	0.589	1.44
A32Q	0.0849	-0.338
A32W	-0.684	
A32I	0.101	0.722

Variant	scaled log2 fold change [1]	scaled log2 fold change [2]
A32H	-0.58	-0.0637
A32C	-0.309	-1.08
A32D	0.119	
A32S	0.0206	-0.496
A32N	-0.064	-0.0431
L38N	0.377	0.121
L38F	0.294	0.135
L38Q	-0.878	-0.206
L38A	-0.113	
L38R	0.333	1.23
L38P	-0.12	0.667
L38H	0.153	0.35
L38G	-0.74	
L38K	-0.0234	0.601
L38T	0.403	0.953
L38D	0.132	-0.187
L38E	0.019	0.931
L38I	-0.615	0.0108
L38W	-0.0179	
L38Y	-0.0523	-0.184
L38V	-0.109	
L38C	-0.631	0.0841
L38M	0.492	1.02
L38S	-0.172	-0.0978
R31E	-0.00724	

Variant	scaled log2 fold change [1]	scaled log2 fold change [2]
R31W	-0.118	-0.246
R31Q	0.031	0.166
R31P	0.561	-0.0123
R31V	0.267	
R31F	-0.116	0.357
R31M	0.66	
R31S	0.29	0.11
R31H	-0.603	
R31N	-0.000941	
R31G	0.358	-0.248
R31I	0.762	
R31A	0.317	
R31T	-0.552	-0.717
R31Y	0.463	-0.658
G29K	-0.417	1.26
G29D	0.238	
G29S	0.00542	-0.441
G29M	-0.124	-0.568
G29C	0.0521	-0.731
G29E	0.324	0.361
G29V	-0.87	
G29Y	-0.628	
G29T	-0.284	-0.357
G29P	-0.415	-0.6
G29R	-0.244	-0.0867

Variant	scaled log2 fold change [1]	scaled log2 fold change [2]
G29I	0.147	-1.13
G29F	-0.118	-0.149
G29W	0.42	0.76
R41D	0.137	-0.209
R41K	0.264	-0.114
R41I	-0.144	0.109
R41A	0.281	0.851
R41C	-0.0654	-0.255
R41G	-0.751	0.252
R41F	0.347	-0.469
R41H	0.145	-0.535
R41E	0.0687	-0.798
S30G	-0.403	0.208
S30R	0.119	
S30L	0.0325	
S30K	0.428	-0.721
S30Q	0.345	-0.23
S30A	0.166	-0.0965
S30I	0.0124	-0.232
S30F	-0.244	-0.2
S30M	0.423	-0.121
S30Y	-0.00883	-0.262
S30C	0.348	-0.559
S30E	0.181	-0.188
S30D	0.413	0.89

Variant	scaled log2 fold change [1]	scaled log2 fold change [2]
S30H	0.109	0.106
S30V	0.222	-0.701
S30T	-0.784	-0.554
S30N	0.26	-0.64
R39A	0.0642	-0.565
R39P	-0.972	-0.296
R39S	0.489	0.0758
R39I	-0.111	0.989
R39W	0.0801	0.13
R39H	0.0443	-0.509
R39N	-0.39	-0.278
R39F	0.0891	-0.0588
R39V	0.374	-0.208
R39C	-0.483	0.689
R39Q	-0.432	0.178
R39G	0.577	0.061
R39K	-0.687	-0.451
R39Y	0.0455	-0.31
R39E	-0.217	0.936
R39D	-0.217	1.07
R39M	0.188	0.344
R39T	-0.117	0.0293
R39L	-0.142	-0.141
